This is an account of results in ChEMBL document CHEMBL3593243, “Discovery of novel, potent, selective and cellular active ADC type PTP1B inhibitors via fragment-docking-oriented de novel design” (Bioorg Med Chem, 2015).

Substrate in data set [1]: CCOc1cc(NS(C)(=O)=O)c(OCC)cc1CNC(=O)Nc1ccc(OC)cc1
The following applies: Homo sapiens; 0.1 uM.
Description: Inhibition of recombinant PTP1B (unknown origin) using pNPP as substrate assessed as enzyme Km at 0.1 uM after 30 mins by Michaelis-Menten plot analysis

Substrate in data set [2]: CCOc1cc(NS(C)(=O)=O)c(OCC)cc1CNC(=O)Nc1ccc(OC)cc1
The following applies: Homo sapiens; 0.2 uM.
Description: Inhibition of recombinant PTP1B (unknown origin) using pNPP as substrate assessed as enzyme Km at 0.2 uM after 30 mins by Michaelis-Menten plot analysis

Substrate in data set [3]: CCOc1cc(NS(C)(=O)=O)c(OCC)cc1CNC(=O)Nc1ccc(OC)cc1
The following applies: Homo sapiens; 0.4 uM.
Description: Inhibition of recombinant PTP1B (unknown origin) using pNPP as substrate assessed as enzyme Km at 0.4 uM after 30 mins by Michaelis-Menten plot analysis

Substrate in data set [4]: CCOc1cc(NS(C)(=O)=O)c(OCC)cc1CNC(=O)Nc1ccc(OC)cc1
The following applies: Homo sapiens; 0.8 uM.
Description: Inhibition of recombinant PTP1B (unknown origin) using pNPP as substrate assessed as enzyme Km at 0.8 uM after 30 mins by Michaelis-Menten plot analysis

Substrate in data set [5]: CCOc1cc(NS(C)(=O)=O)c(OCC)cc1CNC(=O)Nc1ccc(OC)cc1
The following applies: Homo sapiens; 0.1 uM. This is another data set of the same source.
Description: Inhibition of recombinant PTP1B (unknown origin) using pNPP as substrate assessed as enzyme Vmax at 0.1 uM after 30 mins by Michaelis-Menten plot analysis

Substrate in data set [6]: CCOc1cc(NS(C)(=O)=O)c(OCC)cc1CNC(=O)Nc1ccc(OC)cc1
The following applies: Homo sapiens; 0.2 uM. The source holds these as a separate data set.
Description: Inhibition of recombinant PTP1B (unknown origin) using pNPP as substrate assessed as enzyme Vmax at 0.2 uM after 30 mins by Michaelis-Menten plot analysis

Substrate in data set [7]: CCOc1cc(NS(C)(=O)=O)c(OCC)cc1CNC(=O)Nc1ccc(OC)cc1
The following applies: Homo sapiens; 0.4 uM. The source holds these as a separate data set.
Description: Inhibition of recombinant PTP1B (unknown origin) using pNPP as substrate assessed as enzyme Vmax at 0.4 uM after 30 mins by Michaelis-Menten plot analysis

Substrate in data set [8]: CCOc1cc(NS(C)(=O)=O)c(OCC)cc1CNC(=O)Nc1ccc(OC)cc1
Description: Inhibition of recombinant PTP1B (unknown origin) using pNPP as substrate assessed as enzyme Vmax at 0.8 uM after 30 mins by Michaelis-Menten plot analysis
The following applies: Homo sapiens; 0.8 uM. This is another data set of the same source.

B1: Tyrosine-protein phosphatase non-receptor type 1 (Homo sapiens), P18031 (protein)
chain: MEMEKEFEQIDKSGSWAAIYQDIRHEASDFPCRVAKLPKNKNRNRYRDVSPFDHSRIKLHQEDNDYINASLIKMEEAQRSYILTQGPLPNTCGHFWEMVWEQKSRGVVMLNRVMEKGSLKCAQYWPQKEEKEMIFEDTNLKLTLISEDIKSYYTVRQLELENLTTQETREILHFHYTTWPDFGVPESPASFLNFLFKVRESGSLSPEHGPVVVHCSAGIGRSGTFCLADTCLLLMDKRKDPSSVDIKKVLLEMRKFRMGLIQTADQLRFSYLAVIEGAKFIMGDSSVQDQWKELSHEDLEPPPEHIPPPPRPPKRILEPHNGKCREFFPNHQWVKEETQEDKDCPIKEEKGSPLNAAPYGIESMSQDTEVRSRVVGGSLRGAQAASPAKGEPSLPEKDEDHALSYWKPFLVNMCVATVLTAGAYLCYRFLFNSNT
With B1, the Km in data set [1] amounted to 2960 µM; in data set [2], 3.89 mM; in data set [3] it was 4.52 mM; in data set [4] it was 7.32 mM. Further, the Vmax (milli optical density/minute) in data set [5] turned out to be 58.3; in data set [6] it was 54.8; in data set [7] it was 48.9; in data set [8] it was 52.5.
